This assay addresses CLDN18.2 (亲和力检测, Table 2 ka/kd/KD). Briefly: affinity measurement, method not described.

As a reminder, the Kd is the free concentration of one partner at which half of the binding sites on the other are occupied at equilibrium, for simple one-to-one binding. As to IMAB362 (antibody), the Kd is 2.89 nM.

Source of the values: patent CN115969997A.
